Data from US20230312722A1 (NONA BIOSCIENCES SUZHOU, published 2023).
Read-outs that look alike come from different tables or passages of the source.

Columns and labels:
[1] = biological target: T1, mouse B7H4 on the cell surface (mouse, UniProt Q7TSP5 25-257); assay: FACS, CHOK1/m B7H4 cells
T1 construct: whole, on cells; also called CHOK1/m B7H4
T1 sequence (looked up): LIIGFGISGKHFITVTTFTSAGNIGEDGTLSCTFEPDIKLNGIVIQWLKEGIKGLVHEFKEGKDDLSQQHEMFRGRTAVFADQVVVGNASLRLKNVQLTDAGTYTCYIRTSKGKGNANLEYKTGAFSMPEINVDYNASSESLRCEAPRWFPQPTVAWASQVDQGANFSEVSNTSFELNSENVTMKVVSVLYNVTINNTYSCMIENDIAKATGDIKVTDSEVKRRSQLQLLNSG
Protocol: (§1) This example is intended to investigate the in vitro binding activity of anti-human B7H4 H2L2 monoclonal antibody to human/cynomolgus monkey/mouse B7H4. Antibody binding experiments at the cellular level were performed using CHOK1 cell line overexpressing human B7H4 (CHOK1/hu B7H4, Harbour BioMed), CHOK1 cell line overexpressing cynomolgus monkey B7H4 (CHOK1/cyno B7H4, Harbour BioMed), CHOK1 cell line overexpressing mouse B7H4 (CHOK1/m B7H4, Harbour BioMed) and SK-BR-3 cell line (ATCC® HTB-30) highly expressing human B7H4. Briefly, CHOK1/hu B7H4 cells, CHOK1/cyno B7H4 cells, CHOK1/m B7H4 cells or SK-BR-3 cells were digested and resuspended with PBS containing 2% BSA. The cell density was adjusted to 1×10⁶ cells/mL. The cells were seeded in a 96-well V-bottom plate (Corning, #3894) at 100 μL/well, followed by the addition of test antibodies diluted in a 3-fold concentration gradient of 2 times the final concentration, each at 100 μL/well. The cells were incubated at 4° C. for 2 h away from light. Thereafter, the cells in each well were rinsed twice with 100 μL of pre-cooled PBS containing 2% BSA, and centrifuged at 500 g at 4° C. for 5 min, and then the supernatant was discarded. […] Finally, the cells in each well were resuspended with 200 μL of pre-cooled PBS containing 2% BSA, and the fluorescence signal values were read using an ACEA Novocyte3000 flow cytometer.

[2] = biological target: T1, mouse B7H4 on the cell surface; assay: FACS, CHOK1/m B7H4 cells; remark: listed apart in the source
Protocol: as §1

[3] = biological target: T2, Human B7H4 (his tag), Sino Biological #10738-H08H (human, UniProt Q7Z7D3 25-259); assay: SPR (Biacore T200), antibody captured on Protein A, B7H4-his as analyte, 1:1 fit
T2 construct: extracellular domain; Bought protein; also called hB7H4-ECD-his
T2 sequence (looked up): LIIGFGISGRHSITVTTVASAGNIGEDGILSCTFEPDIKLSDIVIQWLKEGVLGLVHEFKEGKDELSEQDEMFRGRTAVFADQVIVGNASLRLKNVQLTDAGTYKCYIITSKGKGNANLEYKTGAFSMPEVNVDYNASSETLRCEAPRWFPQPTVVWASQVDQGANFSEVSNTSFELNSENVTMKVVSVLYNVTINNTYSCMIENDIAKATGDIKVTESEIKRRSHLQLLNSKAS
Protocol: 10×HBS-EP+ (GE Healthcare, #BR-1006-69) was diluted 10-fold and then taken as an experimental buffer. The flow rate was set at 10 μL/min, and Protein A was coupled to 4 channels of a chip CM5 (GE Healthcare, #BR-1005-30) through the following procedures: 1) the injection time was set to 800 s, and a fresh mixture of 50 mM NHS and 200 mM EDC was injected into the 4 channels in a volume ratio of 1:1; 2) Protein A was diluted to 20 μg/mL with sodium acetate (GE Healthcare, #BR-1003-50) at pH 4.5 and injected into each channel for 800 s; and 3) 1 M ethanolamine at pH 8.5 was injected for 800 s to block the remaining active carboxyl groups on the chip surface. After blocking, the instrument was equilibrated with 1×HBS-EP+buffer for 2 hours, and the final coupling level of Protein A was about 2000 RU.
A multi-cycle kinetics mode was set at Biacore T200, and each cycle included antibody capture, analyte binding and chip regeneration. […] Finally, 10 mM glycine-hydrochloric acid at pH 1.5 (GE Healthcare, #BR-1003-54) was injected at the same flow rate for 30 s to regenerate the chip.
The experimental results were analyzed using the Biacore T200 analysis software 2.0, with channel 1 subtracted as a reference channel and a 1:1 kinetic fitting model selected as an analysis model.

[4] = biological target: T3, B7-H4 (Acro Biosystems, #B74-H82E2) (UniProt Q7Z7D3 29-258); assay: BLI epitope competition; 1st Ab = row; competitor (2nd Ab) PR002418; inhibition of the 2nd Ab signal
T3 construct: Bought protein; also called B7-H4 captured on SA sensor
T3 sequence (looked up): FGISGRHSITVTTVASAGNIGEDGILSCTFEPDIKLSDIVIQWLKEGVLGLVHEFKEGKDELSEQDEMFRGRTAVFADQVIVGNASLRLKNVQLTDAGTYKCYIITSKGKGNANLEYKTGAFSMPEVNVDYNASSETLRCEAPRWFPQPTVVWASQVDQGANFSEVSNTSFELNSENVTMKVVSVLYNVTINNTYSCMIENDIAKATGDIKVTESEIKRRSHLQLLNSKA
Protocol: Step one, acquisition of 100% signal of antibodies: B7-H4 (Acro Biosystems, #B74-H82E2-200 μg) was captured at a capture height of 0.25 nm using an SA sensor (Fortebio, #18-5019). The sensor was equilibrated in a buffer for 120 s and then immersed in each antibody diluted to 100 nM for 240 s, and the final signal of the antibody binding to B7-H4 was recorded as the 100% signal of the antibody. Step two, epitope competition experiment: B7-H4 was captured using an SA sensor at a capture height of 0.25 nm. The sensor was immersed in a primary antibody (at a concentration of 100 nM) for 240 s, and then the SA sensor was immersed in a mixture of the primary and secondary antibodies (both at a final concentration of 100 nM) for 240 s, and the difference in signals after immersion of the sensor in the antibody mixture was recorded as the signal of the antibody as the secondary antibody. The inhibition rate was calculated according to the following formula: […]

B1: Control antibody 1 (PR000157) (antibody, V domains shown)
VH: EVQLVQSGAEVKKPGASVKVSCKASGYTFTSYWIGWVRQAPGQGLEWIGDIYPGGGYTNYNEKFKGRVTITRDTSTSTAYLELSSLRSEDTAVYYCARLAGSSYRGAMDSWGQGTLVTVSS
VL: DIQMTQSPSSLSASVGDRVTITCKASQGFNKYVAWYQQKPGKAPKLLIYYTSTLQPGVPSRFSGSGSGRDYTLTISSLQPEDFATYYCLQYGDLLYAFGQGTKVEIKR
notes: Anti-B7H4 IgG1 control antibody from WO2016040724A1; also called 1D11.v1.9varC2
[1]
  EC50: 1.38 nM
  Maximum MFI: 858000 MFI
[2]
  EC50: 1.73 nM
  Maximum MFI: 1.75e+06 MFI
[3]
  Kd: 4.67 nM
  koff: 0.000189 s⁻¹
  kon: 40400 M⁻¹ s⁻¹
[4]
  Competitive inhibition rate (%): 4.55%
